Positions count from the first letter of the chain named.
B1: 鼠抗体28B1 (antibody, from another filing, V domains shown)
VH: QVQLKQSGAELVKPGASVMLSCTASAFNIDDTYIHWVKQRPEQGLEWIGRIDPANGNTDYDPECQGKATITTDMSSNTAYLQLSSLTSEDTAVYFCARGLRLPGLVYWGRGTLVTVSA
VL: DIQMTQTTSSLSASLGDRVTISCRASQDISNYLNWYQQKPDGTVKLLIYYTSILYSGVPSRFSGSGSGTDYSLTINTLEEEDIATYFCQQGNTLPWTFGGGTKLEIIR
B2: 鼠抗体22B10 (antibody, from another filing, V domains shown)
VH: QVQLKQSGAELVKPGASVELSCTASGFNIEDTYLHWVNQRPEQGLEWIGRIDPANGNTYYDPKFQGKATITTDTSSNTAYLQLSRLTSEDTAVYYCARGLRLPGFPYWGQGTLVTVSA
VL: B1 VL with T8P, N34S, Y55H, T74A, N76S, T77N, E79D, E80Q, I107K
B3: 鼠抗体8A2 (antibody, from another filing, V domains shown)
VH: QVQLKQSGPGLVAPSQSLSITCTVSGFSLTGYGVNWVRQPPGKGLEWLGKIWGDGITDYNSALKSRLSISKDNSKSQVFLKMNSLQTDDTARYYCARDVMDYWGQGTSVTVSS
VL: QIVLTQSPAIMSASPGEKVTMTCSASSSISYMHWYQQKPGTSPKRWIYDTSKLASGVPARFSGSESGTSYSLTISSMEAEDAATYYCHHRSPYPTFGAGTKLELK
B4: 鼠抗体13C9 (antibody, from another filing, V domains shown)
VH: QVQLKQSGAGLVKPGASVKLSCKASGYIFTEYIIHWVKQRSGQGLEWIGWFYPGSDNIKYNEKFKDKATLTADKSSSTVYMELSRLTSEDSAVYFCARHETGYFFDYWGQGTTLTVSS
VL: DIVITQSPAIMSASPGEKVTMTCSASSSVSKMNWYQQKSGTSPKRWIYDTSKLASGVPSRFSGSGSGTSYSLTISSMEAEDAATYYCQQWSSNPLTFGSGTKLELKR
B5: 鼠抗体15G10 (antibody, from another filing, V domains shown)
VH: QVQLKQSGPELVKPGASVKTSCKASGYTFTNYVVHWVKQNPGQGLEWIGYVNPNNDGTIFNEKFKDKAILTSDKSSSTAYMELSSLTSEDSAVYYCARSPFAHWGQGTLVTVSA
VL: QIVLTQSPASLTVSLGQRATISCSASESVDFYGTSLMQWFQQKPGQPPKLLVYTASNVDSEVPARFSGSGSGTDFSLNIHPVEEDDIAMYFCHQTRKVPYTFGGGTKLEIK

What was measured:
[1] = biological target: 人PD-L1 on 293T-h-PDL1 cells (HEK293 stably expressing PD-L1) (human) (UniProt Q9NZQ7); assay: FACS, hybridoma supernatant on 293T-h-PDL1 cells
[2] = biological target: 人PD-L1胞外区与人IgG1-FC的融合蛋白 (human) (UniProt Q9NZQ7); assay: FACS blocking: supernatant premixed with 500 ng PD-L1-hFc; competitor PD-1 on 293T-h-PD1 cells
[3] = biological target: 人PD-L1 on 293T-h-PDL1 cells (HEK293 stably expressing PD-L1) (human) (UniProt Q9NZQ7); assay: FACS, antibody on 293T-h-PDL1 cells

| Binder | EC50 [1] [µg/mL] | IC50 [2] [µg/mL] | EC50 [3] [µg/mL] |
| --- | --- | --- | --- |
| B1 | 0.39 | 2.31 |  |
| B2 | 0.517 | 4.31 |  |
| B3 | 0.336 | 5.17 |  |
| B4 | 0.44 | 1.95 | 0.49 |
| B5 | 1.45 | 4 |  |
